# Results from patent US12427163B2, “Anti-VTCN1 antibodies and antibody drug conjugates” (Bluefin BioMedicine, Inc., priority 2017, dated 2025).
# T1: human VTCN1 protein (Homo sapiens, UniProt Q7Z7D3)
# T1 construct: His
# T1 sequence (Q7Z7D3 25-282): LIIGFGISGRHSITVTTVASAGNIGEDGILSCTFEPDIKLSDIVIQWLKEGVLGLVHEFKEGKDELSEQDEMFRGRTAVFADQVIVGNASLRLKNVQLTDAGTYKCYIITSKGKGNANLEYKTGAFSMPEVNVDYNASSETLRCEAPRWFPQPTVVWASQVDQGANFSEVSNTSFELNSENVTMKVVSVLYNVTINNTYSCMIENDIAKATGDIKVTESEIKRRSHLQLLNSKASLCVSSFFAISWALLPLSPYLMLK
# T2: mouse VTCN1 protein (Mus musculus, UniProt Q7TSP5)
# T2 construct: His
# T2 sequence (Q7TSP5 25-257): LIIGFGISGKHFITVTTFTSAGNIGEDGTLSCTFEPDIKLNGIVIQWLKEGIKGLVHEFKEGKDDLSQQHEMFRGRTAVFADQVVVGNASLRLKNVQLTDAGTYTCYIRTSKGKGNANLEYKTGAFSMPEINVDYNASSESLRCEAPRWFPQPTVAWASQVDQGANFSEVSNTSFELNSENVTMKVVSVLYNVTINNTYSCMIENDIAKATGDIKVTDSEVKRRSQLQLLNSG
# T3: 293 cells expressing recombinant human VTCN1 (Homo sapiens, UniProt Q7Z7D3)
# T3 construct: expressed in transfected cells; host or cells: 293 cells
# T3 sequence (Q7Z7D3 25-282): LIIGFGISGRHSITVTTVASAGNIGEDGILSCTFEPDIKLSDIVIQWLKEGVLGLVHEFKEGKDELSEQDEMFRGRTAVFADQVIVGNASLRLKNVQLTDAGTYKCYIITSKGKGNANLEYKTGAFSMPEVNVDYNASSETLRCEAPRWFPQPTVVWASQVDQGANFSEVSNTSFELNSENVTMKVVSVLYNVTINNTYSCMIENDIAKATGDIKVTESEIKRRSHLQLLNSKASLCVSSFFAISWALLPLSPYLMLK
# Columns and labels:
# [1] = tested on: KLN205 tumors; test: KLN205 syngeneic mouse lung squamous tumor model in DBA2 mice; format: in vivo
# Protocol: For the tumor study. 6-8 week-old female DBA2 mice were implanted subcutaneously in the right flank with 2.5×10^5 mouse lung squamous carcinoma KLN205 cells in 50% matrigel on day 0. Mice were treated with PBS as a vehicle control, a mouse IgG isotype control (10 mg/kg), or anti-VTCN1 6D9 antibody (10 mg/kg) on days 3, 6, 10, 13, 15, 17, 20, and 22 following tumor implantation by intraperitoneal (i.p.) injection. Tumors were measured using an electronic caliper twice a week and tumor volume was calculated using the formula 0.52*length*width*width. Mouse body weight was also measured and recorded.
# 6-8 week-old female DBA2 mice were implanted subcutaneously in the right flank with 2.5×10^5 mouse lung squamous carcinoma cell KLN205 cells in 50% matrigel on day 0. Tumors were measured on day 7 and mice are randomized to 7 treatment groups. The average size was 50 mm^3. The treatment groups were: PBS vehicle control, mIgG2a isotype control. 6D9, anti-mouse PD1 antibody RMP1-14, 6D9+RMP1-14, anti-mouse CTLA-4 antibody 9D9, and 6D9+9D9. The mice were treated on days 8, 11, 13, 15, 18, 20, 22, and 25. All antibodies were 10 mg/kg by i.p.
# To test the activity of the 6D9 and 6D9-mIgG1 antibodies, 6-8 weeks old female DBA2 mice were implanted subcutaneously in the right flank with 0.2 million KLN205 cells in PBS on day 0. Mice were randomized on day 9 into 3 treatment groups, mIgG1 control. 6D9-mIgG1, 6D9-mIgG2a. Mice were treated on days 9, 11, 15, 18, and 22 by i.p. with 200 μg antibodies (10 mg/kg). […] However.
# [2] = tested on: cynomolgus monkey VTCN1 protein; test: Affinity by OCTET, cynomolgus monkey VTCN1; format: binding; conditions: Table 12
# Protocol: (§1) The affinity of antibodies to recombinant VTCN1 was determined on an OCTET™ Red (Pall, ForteBio) instrument. After loading reagents into a 96-well plate, the OCTET™ Red with Protein A-conjugated biosensors was programmed as follows: 30 seconds for baseline #1; 45 seconds to immobilize the antibody; 30 seconds for baseline #2; 300 seconds for association of antibody to recombinant VTCN1-his; and 300 seconds for dissociation of recombinant VTCN1-his from the antibody.
# [3] = biological target: T1, human VTCN1 protein; test: Affinity to recombinant VTCN1-his by OCTET Red (Protein A biosensors); format: binding; conditions: Table 12
# Protocol: as §1, with “antibody. Table 5 lists the affinity measured for selected antibodies.” for “antibody.”
# [4] = biological target: T2, mouse VTCN1 protein; test: Affinity by OCTET, mouse VTCN1; format: binding; conditions: Table 12
# Protocol: as §1, with “antibody. Table 5 lists the affinity measured for selected antibodies.” for “antibody.”
# [5] = biological target: T3, 293 cells expressing recombinant human VTCN1; test: Cell-based competition binding FACS assay against 6D9; conditions: 6D9 10 μg/ml, human antibody 1 μg/ml
# Protocol: To assess if these human VTCN1 antibodies bind to same or different regions of VTCN1 protein, a cell-based competition binding FACS assay was performed. […] The cells were then resuspend in FACS buffer with DAPI, and analyzed by flow cytometry.
Molecule,mouse survival / time to tumor end point 1500 mm^3 ([1]; Example 15),"KLN205 primary tumor growth, isotype comparison ([1]; Example 15, 200 μg (10 mg/kg) i.p. from day 9)",cynomolgus monkey k(off) [2],cynomolgus monkey k(on) [2],Human K(off) [3],Human k(on) [3],mouse k(off) [4],mouse k(on) [4],competition with 6D9 for binding to VTCN1 [5]
"6D9-mIgG1: 6D9 antibody converted from a mouse IgG2a to a mouse IgG1 (antibody, V domains shown) VH: QIQLQQSGPGLVQPSQSLSITCTVSGFSLTSYGVQWIRQSPGKGLEWLGVIWSSGSTDYNAAFLSRLSFSKDNSKSQVFFQMNSLQADDSAIYYCARDVTTIVEGFAHWGQGTLVTVSA VL: NIVMTQSPKSMSMSVGERVTLSCKASEKVGTYVSWYQQKPEQSPKLLIYGASNRYTGVPDRFTGSGSATDFTLTISSVQVEDLADYHCGQTYSYPFTFGSGTKLEIK",prolonged mouse survival,inhibit primary tumor growth,,,,,,,
"4C7_63A1: fully human VTCN1 antibody; VH SEQ ID NO: 248, VL SEQ ID NO: 252 (antibody, V domains shown) VH: QVQLQESGPGLVKPSGTLSLTCAVSGGSISSSNWWSWVRQPPGKGLEAIGEIYHSGNTNYNPSLKSRVTISVDKSKNQFSLKLSSVTAADTAIYYCARDGYSSGWYWGYFDYWGQGTLVTVSS VL: EIVMTQSPATLSVSPGERATLSCRASQSVNSNLAWYQQKPGQAPWLLIYGASTRATGIPARFSGSGSGTEFTLTISSLQSEDFAVYYCQQYNHWPYTFGQGTKLEIK",,,5.80E−03,1.23E+05,5.81E−03,1.19E+05,4.01E−03,9.07E+04,compete with 6D9
"16H12_60B4: fully human VTCN1 antibody; VH SEQ ID NO: 283, VL SEQ ID NO: 286 (antibody, V domains shown) VH: QVQVVQSGAEVKKPGSSVKVSCKASGDTFSNYAISWVRQAPGQGLEWMGGIIPIFGITNYAQKFQGRVTIIADKSTRTAYMELSSLRSEDTAVYYCSRGGPYFDYWGQGILVTVSS VL: EIVMTQSPATLSVSPGERATLSCRASQSVSSNLAWYQQKPGQAPRLLIYGASTRATGIPARFSGSGSGTEFTLTISSLQSEDFAVYYCQQYKKWPFTFGPGTKVDIK",,,2.40E−04,2.45E+05,1.95E−04,2.62E+05,3.76E−03,1.37E+05,do not compete with 6D9
"14D6_60B5: fully human VTCN1 antibody; VH SEQ ID NO: 278, VL SEQ ID NO: 281 (antibody, V domains shown) VH: QVQLVHSGAEVKRPGSSVKVSCKASGGTFSSYAISWVRQAPGQGLEWMGGIIPIFGIANYAQKFQGRVTIIADKSTRTAYMELSSLRSEDTAVYYCARGGPYFDYWGQGILVTVSS VL: EIVMTQSPATLSVSPGERATLSCRASQSVSSNLAWYQQKPGQAPRLLIYGASTRATGIPARFSGSGSGTEFTLTISSLQSEDFAVYYCQQYNKWPFTFGPGTKVDIK",,,6.91E−04,1.32E+05,6.29E−04,1.32E+05,6.47E−03,1.15E+05,do not compete with 6D9
"12B5_44B1: fully human VTCN1 antibody; VH SEQ ID NO: 264, VL SEQ ID NO: 268 (antibody, V domains shown) VH: QVQLVQSGAEVKKPGSSMKVSCKASGDTFSSYAISWVRQAPGQGLEWMAGIIPVFGTAHNAQKFQGRVTITADKSTSTAYMELSSLRSEDTAVYYCTRGGPYFDYWGQGTLVTVSS VL: EIVMTQSPATLSVSPGERAALSCRASQSVSSNLAWYQQKPGQAPRLLIYGVSTRATGIPDRFNGSGSGTEFTLTISSLQSEDFGAYYCQQYKKWPFIFGPGTKLEIK",,,3.74E−04,1.80E+05,3.54E−04,1.61E+05,8.11E−03,2.15E+05,do not compete with 6D9
